The text below walks through data of patent US20090111753A1, “Nogo-A Polypeptide Fragments, Variant Nogo Receptor-1 Polypeptides, and Uses Thereof” (Yale University, priority 2004, published 2009).

The target in one test is T1, NgR (Homo sapiens, UniProt Q9BZR6).
T1 construct: expressed in transfected cells; host or cells: COS-7
T1 sequence (Q9BZR6 27-447): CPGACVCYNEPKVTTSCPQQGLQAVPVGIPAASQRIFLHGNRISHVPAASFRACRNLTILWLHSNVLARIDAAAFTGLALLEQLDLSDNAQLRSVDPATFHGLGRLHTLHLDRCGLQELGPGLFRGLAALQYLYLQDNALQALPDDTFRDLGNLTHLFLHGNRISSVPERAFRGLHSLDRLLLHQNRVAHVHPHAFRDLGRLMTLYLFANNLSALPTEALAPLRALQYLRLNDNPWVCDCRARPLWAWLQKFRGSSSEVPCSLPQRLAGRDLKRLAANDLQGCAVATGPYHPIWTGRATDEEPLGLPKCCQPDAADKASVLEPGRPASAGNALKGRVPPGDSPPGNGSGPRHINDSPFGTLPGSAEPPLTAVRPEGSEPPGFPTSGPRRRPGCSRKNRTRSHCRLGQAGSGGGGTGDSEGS
The experiment in a line: AP fusion protein binding to NgR expressing COS-7 cells. As to conditions: for NgR Kd (nM) / Kd: AP fused Amino-Nogo fragments in conditioned media on NgR expressing COS-7 cells, 'No binding at' cells continue on the next line: AmNg A 150 nM, a.a. 1000-1018, a.a. 1005-1018, Amino of NgC 25 nM, a.a. 950-1004 50 nM, Amino of NgB 100 nM; for binding to NgR (COS-7 cells expressing NgR): qualitative. The text has this: Several alkaline phosphatase (AP) fusion proteins containing various Nogo-A segments derived from regions between the amino terminus and the first hydrophobic segment were examined to identify the mechanism of Amino-Nogo-A action. To generate additional AP fusion proteins, human amino Nogo fragments were amplified and ligated to the pcAP6 vector digested with restriction enzymes EcoRI and XhoI as described (Fournier, A. E., et al., Nature 409:341-346 (2001)). Plasmids were then transfected into HEK293T cells and conditioned media were collected after 7 days. None of these fragments bind with high affinity to non-transfected COS-7 cells. […] This binding is saturable with a Kd indistinguishable from that for AP-Nogo-66 association with NgR (Table I). To better define the region responsible for Amino-Nogo interaction with NgR, a range of truncation mutants of Amino-Nogo were examined as AP fusion proteins. […] In fact, the NgR-interacting segment of Amino-Nogo is fully accounted for in the extreme carboxyl 24 amino acids (aa 995-1018, Amino-Nogo-A-24) (Table I and FIG. 1D). […] We named this domain (aa 995-1013) as Amino-Nogo-A-19.
Binding Kds for AP fused Amino-Nogo fragments were measured by applying conditioned media containing AP fusion protein to NgR expressing COS-7 cells. Bound AP was stained and measured.
It has been recognized that the Amino-Nogo-A protein inhibits non-neuronal cell spreading and axonal outgrowth when the protein is substrate bound (Chen, M. S., et al., Nature 403:434-439 (2000); Fournier, A. E., et al., Nature 409:341-346 (2001)). […] The later domain has been termed Δ20. To determine whether the NgR-interacting aa of Amino-Nogo-A described in Example 1 regulate cell spreading and axonal outgrowth, various fragments were expressed as GST fusion proteins and purified from E. coli. To generate GST fusion proteins, amino Nogo fragments were cloned in pGEX2T (Amersham Pharmacia). Native and soluble GST fusion proteins were expressed and purified as described (GrandPre, T., et al., Nature 403:439-444 (2000)). COS-7 binding assays were done as described (Fournier, A. E., et al., Nature 409:341-346 (2001)). Bound AP to COS-7 cells was measured using NIH image software. Fibroblast spreading and cDRG outgrowth assay were done as described (Fournier, A. E., et al., Nature 409:341-346 (2001)) with some modifications. Briefly, 50 μl of purified GST fusion protein or peptides diluted in PBS was pipetted into polylysine precoated 96 well plates (Becton Dickson Biocoat plates) and dried overnight at room temperature. For fibroblast spreading assay, subconfluent COS-7 cells were then plated for 1 hour in serum containing medium before fixation and staining with rho damine-phalloidin.

Test [1] addresses T2, AP fusion protein with the B4C fragment of Amino-Nogo-A fused directly to Nogo-66 (human, UniProt Q9NQC3 1055-1120).
T2 construct: domain: Nogo-66; also called AP-B4C66; AP-B4C-66; not shown: alkaline phosphatase (AP), vector pcAP6
T2 sequence: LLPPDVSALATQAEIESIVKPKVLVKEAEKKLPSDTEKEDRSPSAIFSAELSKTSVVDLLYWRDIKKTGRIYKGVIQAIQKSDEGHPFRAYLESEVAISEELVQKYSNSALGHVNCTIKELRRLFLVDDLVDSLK
The experiment in a line: AP-ligand binding, COS-7.

Test [2] concerns the target T3, AP-fused Amino-Nogo fragment B4C (a.a. 950-1018) (human, UniProt Q9NQC3 950-1018).
T3 construct: also called AmNg B4C; AP-B4C; not shown: alkaline phosphatase (AP), vector pcAP6
T3 sequence: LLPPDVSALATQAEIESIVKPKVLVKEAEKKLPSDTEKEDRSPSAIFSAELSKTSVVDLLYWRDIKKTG
Nature of the test: AP-ligand binding, COS-7.

A further test addresses T4, AP-Nogo-66 (UniProt Q9NQC3 1055-1120).
T4 construct: domain: Nogo-66; construct described elsewhere (Fournier 2001); also called AP-Ng66; Ng66; not shown: alkaline phosphatase (AP); construct described elsewhere
T4 sequence (looked up): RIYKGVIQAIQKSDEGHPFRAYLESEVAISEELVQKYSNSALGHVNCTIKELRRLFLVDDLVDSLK
Nature of the test: AP-ligand binding, COS-7.

A further test deals with NgR ligands. Nature of the test: Binding of alanine substituted NgR mutants to NgR ligands, summary categories. To be noted: AP-Nogo66, AP-B4C, AP-B4C66, AP-Lingo-1, AP-OMgp and AP-MAG; compared to wild type NgR. The method in brief:
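AP-fused ligands (Nogo66, B4C, B4C66, Lingo-1, OMgp, MAG) were assayed against 74 Ala-substitution mutants of human NgR1 targeting surface charged patches, glycosylation sites and predicted binding regions, plus the D259N variant. Outcomes were grouped into categories: binding lost for all ligands, retained for all, or ligand-selective.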

What is called Kd is the equilibrium constant for the complex coming apart. A lower Kd goes with a tighter complex.

Residue numbers refer to the chain shown, from its start. Numbers in names are those of the source. No end group written: not given here.

For the molecule “............IFSAELSKTS (LLPPDVSALATQAEIESIVKPKVLVKEAEKKLPSDTEKEDRSPSAIFSAELSKTS; also: alkaline phosphatase fusion; UniProt Q9NQC3 950-1004, looked up, fragment) [a.a. 950-1004, AP fusion protein of aa from the Nogo-A-specific region alone]”, in the test with NgR, the “NgR Kd (nM)” value is “No binding” and the “binding to NgR (COS-7 cells expressing NgR)” value (from here on “binding to NgR”) is “do not bind to NgR”.

The molecule IFSAELSKTSVVDLLYWRDIK [a.a. 995-1015] came in with a Kd at NgR of 4.55 ± 3.66 nM.

As for “MDGQKKNWKDKVVDLLYWRDIKKTG (not fully specified) [Amino of NgC, AP fusion protein of Amino-Nogo residues of Nogo-C]”, in the test with NgR, the “NgR Kd (nM)” value is listed as “No binding” and the “binding to NgR” value is reported as “fail to associate with NgR-expressing cells”.

Turning to “LSKTSVVDLLYWRDIKKTG (also: alkaline phosphatase fusion; UniProt Q9NQC3 1000-1018, looked up, fragment) [a.a. 1000-1018, AP fusion protein of Nogo-A aa 1000-1018]”, in the test with NgR, the “NgR Kd (nM)” value was “No binding”.

Turning to “VVDLLYWRDIKKTG (also: alkaline phosphatase fusion; UniProt Q9NQC3 1005-1018, looked up, fragment) [a.a. 1005-1018, AP fusion protein of Nogo-A aa 1005-1018]”, the “NgR Kd (nM)” value with NgR is recorded as “No binding”.

B1: a.a. 877-1018 (AmNg B4): AP fusion protein of Amino-Nogo fragment B4, aa 877-1018 (protein)
chain: SKTDSFSKLAREYTDLEVSHKSEIANAPDGAGSLPCTELPHDLSLKNIQPKVEEKISFSDDFSKNGSATSKVLLLPPDVSALATQAEIESIVKPKVLVKEAEKKLPSDTEKEDRSPSAIFSAELSKTSVVDLLYWRDIKKTG
modifications: left off: large carriers
Turning to B1, in the test with NgR, binding was characterised by a dissociation constant (Kd) of 9.01 ± 6.36 nM.

B2: AP-B4C-66: AP fusion protein with the B4C fragment of Amino-Nogo-A fused directly to Nogo-66 (protein)
chain: T2 sequence
modifications: left off: large carriers
Turning to B2, in the test with NgR (NgR expressing COS-7 cells, FIGS. 6A and 6B), the “Kd for binding of AP-B4C-66 to NgR” value is listed as “subnanomolar”.

B3: Amino of NgB: AP fusion protein of Amino-Nogo residues of Nogo-B (protein)
chain: MEDLDQSPLVSSSDSPPRPQPAFKYQFVREPEDEEEEEEEEEEDEDEDLEELEVLERKPAAGLSAAPVPTAPAAGAPLMDFGNDFVPPAPRGPLPAAPPVAPERQPSWDPSPVSSTVPAPSPLSAAAVSPSKLPEDDEPPARPPPPPPASVSPQAEPVWTPPAPAPAAPPSTPAAPKRRGSSGSVVVDLLYWRDIKKTG
modifications: left off: large carriers
notes: AP fusion protein of Amino-Nogo residues of Nogo-B
For B3, in the test with NgR, the “NgR Kd (nM)” value is on record as “No binding” and the “binding to NgR” value was “fail to associate with NgR-expressing cells”.

B4: human NgR1 alanine mutant 117, 119, 120, 139 (receptor)
chain: CPGACVCYNEPKVTTSCPQQGLQAVPVGIPAASQRIFLHGNRISHVPAASFRACRNLTILWLHSNVLARIDAAAFTGLALLEQLDLSDNAALAAVDPATFHGLGRLHTLHLDACGLQELGPGLFRGLAALQYLYLQDNALQALPDDTFRDLGNLTHLFLHGNRISSVPERAFRGLHSLDRLLLHQNRVAHVHPHAFRDLGRLMTLYLFANNLSALPTEALAPLRALQYLRLNDNPWVCDCRARPLWAWLQKFRGSSSEVPCSLPQRLAGRDLKRLAANDLQGCAVATGPYHPIWTGRATDEEPLGLPKCCQPDAADKASVLEPGRPASAGNALKGRVPPGDSPPGNGSGPRHINDSPFGTLPGSAEPPLTAVRPEGSEPPGFPTSGPRRRPGCSRKNRTRSHCRLGQAGSGGGGTGDSEGSGALPSLTCSLTPLGLALVLWTVLGPC
In the case of B4, the binding result (in test [1]; in test [2]; with AP-Nogo-66) was “no binding” in each case. Also, the “ligand binding category of NgR mutant (Table II)” value in the test with NgR ligands is on record as “No binding”.

B5: human NgR1 alanine mutant 202, 205, 227, 250, 277, 279 (receptor)
chain: B4 chain with A91Q, A93R, A94S, A113R, H176A, D179A, R201A, R224A, K251A, R253A
For the molecule B5, the binding result (in test [1]; in test [2]; in the test with AP-Nogo-66) was “no binding” in each case. In addition, the “ligand binding category of NgR mutant (Table II)” value with NgR ligands was “No binding”.

B6: a.a. 622-1018 (AmNg B): AP fusion protein of the carboxyl half of Amino-Nogo (fragment B), aa 622-1018 (protein)
chain: SAVPSAGASVIQPSSSPLEASSVNYESIKHEPENPPPYEEAMSVSLKKVSGIKEEIKEPENINAALQETEAPYISIACDLIKETKLSAEPAPDFSDYSEMAKVEQPVPDHSELVEDSSPDSEPVDLFSDDSIPDVPQKQDETVMLVKESLTETSFESMIEYENKEKLSALPPEGGKPYLESFKLSLDNTKDTLLPDEVSTLSKKEKIPLQMEELSTAVYSNDDLFISKEAQIRETETFSDSSPIEIIDEFPTLISSKTDSFSKLAREYTDLEVSHKSEIANAPDGAGSLPCTELPHDLSLKNIQPKVEEKISFSDDFSKNGSATSKVLLLPPDVSALATQAEIESIVKPKVLVKEAEKKLPSDTEKEDRSPSAIFSAELSKTSVVDLLYWRDIKKTG
modifications: left off: large carriers
Regarding B6, in the test with NgR, binding was put at a Kd of 6.66 ± 1.49 nM and the “binding to NgR” value was “high affinity binding”.
